The source of these data is US20070015231A1, “Assay for protein tyrosine phosphatases” (CEPTYR, Inc., priority 2000, published 2007).

Where a chain is given by its changes, count along the chain named. Names may count otherwise. Like-named read-outs stand apart in the source and are kept apart here. Square brackets hold non-standard residues; d marks the D form. Ends that are not written are not given here. pY = N[C@@H](Cc1ccc(OP(=O)(O)O)cc1)C(=O)O

The target of data set [1] is T1, CD45 (Homo sapiens, UniProt P08575).
T1 sequence (P08575 26-1306): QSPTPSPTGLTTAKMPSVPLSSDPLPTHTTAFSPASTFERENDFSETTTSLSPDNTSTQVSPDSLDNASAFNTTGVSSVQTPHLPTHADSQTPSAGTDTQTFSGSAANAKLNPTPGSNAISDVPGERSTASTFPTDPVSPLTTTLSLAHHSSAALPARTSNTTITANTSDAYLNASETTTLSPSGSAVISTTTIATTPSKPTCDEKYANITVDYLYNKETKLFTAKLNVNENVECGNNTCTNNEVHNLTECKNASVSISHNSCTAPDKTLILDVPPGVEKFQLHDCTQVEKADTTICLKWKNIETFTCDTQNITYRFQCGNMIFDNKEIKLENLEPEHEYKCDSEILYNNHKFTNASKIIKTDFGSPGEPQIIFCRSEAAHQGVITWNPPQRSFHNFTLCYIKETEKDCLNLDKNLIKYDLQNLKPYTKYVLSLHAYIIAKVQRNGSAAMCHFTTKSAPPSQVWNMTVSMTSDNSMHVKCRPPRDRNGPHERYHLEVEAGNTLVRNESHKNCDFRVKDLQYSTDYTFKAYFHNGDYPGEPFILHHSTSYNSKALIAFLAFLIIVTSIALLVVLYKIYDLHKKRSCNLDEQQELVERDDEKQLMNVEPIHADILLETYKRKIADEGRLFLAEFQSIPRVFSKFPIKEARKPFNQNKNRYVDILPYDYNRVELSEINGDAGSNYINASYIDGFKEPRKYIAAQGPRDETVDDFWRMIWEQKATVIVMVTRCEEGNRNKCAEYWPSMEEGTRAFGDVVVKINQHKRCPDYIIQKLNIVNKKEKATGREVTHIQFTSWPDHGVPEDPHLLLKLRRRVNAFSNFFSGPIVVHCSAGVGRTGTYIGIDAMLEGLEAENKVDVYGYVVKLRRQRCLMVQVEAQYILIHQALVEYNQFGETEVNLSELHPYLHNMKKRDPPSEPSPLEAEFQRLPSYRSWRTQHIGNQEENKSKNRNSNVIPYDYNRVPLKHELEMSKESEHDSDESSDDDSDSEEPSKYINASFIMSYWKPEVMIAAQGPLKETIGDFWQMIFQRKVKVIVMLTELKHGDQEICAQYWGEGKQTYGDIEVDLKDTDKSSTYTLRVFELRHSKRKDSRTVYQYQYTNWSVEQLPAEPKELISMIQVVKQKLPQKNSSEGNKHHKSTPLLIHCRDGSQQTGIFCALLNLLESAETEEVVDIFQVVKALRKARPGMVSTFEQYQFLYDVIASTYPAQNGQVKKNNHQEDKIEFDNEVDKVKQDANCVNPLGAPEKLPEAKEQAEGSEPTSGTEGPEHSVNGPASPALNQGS
Conditions: p56lck residues 500-509 peptide; read-out: Km toward CD45; cited from earlier work.

In data set [2] the target is fluorescein-labeled EGF receptor derived phosphopeptide D-A-D-E-pY-L-NH2 (human). The data set is described as follows: fluorescence polarization, mutant PTP titrated against fluorescein-labeled peptide in solution. Background: In fluorescence polarisation assays a small probe gives low polarisation when free and higher when bound to something large.
Data set [3] addresses fluorescein-labeled insulin receptor derived phosphopeptide T-R-D-I-pY-E-T-D-Y-Y-R (human). The description is as above.
Data set [4] concerns the target fluorescein-labeled EGF receptor derived phosphopeptide D-A-D-E-pY-L-NH2 (human). The data set is described as follows: fluorescence polarization, mutant PTP titrated against fluorescein-labeled peptide in solution (midpoint = apparent Kd).
Data set [5] deals with fluorescein-labeled insulin receptor derived phosphopeptide T-R-D-I-pY-E-T-D-Y-Y-R (human). The description is as above.
In data set [6] the target is T2, PTP1B(C215S) (Homo sapiens, UniProt P18031, C215S).
T2 construct: PTP1B proteins (wild type and mutant forms) comprising amino acids 1-321 were expressed in E. coli; made in house; host or cells: E. coli
T2 sequence (P18031 1-321 C215S): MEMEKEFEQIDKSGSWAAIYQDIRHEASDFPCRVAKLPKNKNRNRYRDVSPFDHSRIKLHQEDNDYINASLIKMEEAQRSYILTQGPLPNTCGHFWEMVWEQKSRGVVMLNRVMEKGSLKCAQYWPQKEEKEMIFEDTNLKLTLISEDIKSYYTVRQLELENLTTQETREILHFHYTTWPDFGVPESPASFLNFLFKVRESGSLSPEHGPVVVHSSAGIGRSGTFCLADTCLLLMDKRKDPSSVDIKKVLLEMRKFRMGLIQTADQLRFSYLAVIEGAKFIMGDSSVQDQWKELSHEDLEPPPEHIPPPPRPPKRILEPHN
The data set is described as follows: PTP-1B (CS) binding assay: fluorescence polarization binding of fluorescein-labeled phosphotyrosyl peptides. Particulars: Table 1; midpoint of bound/unbound transition (apparent Kd). As to the method:
(§1) Two assay parameters were measured: (1) the dynamic range of the signal (i.e. the difference between polarization values of the bound and the unbound fluorescent substrate) and (2) the midpoint of the transition between bound and unbound that represents the apparent Kd (i.e. affinity) of each binding mutant for each peptide.
(§2) Assays were set up at room temperature in black polypropylene 96 well microtiter plates (Polyfiltronics, Whatman, U. K.) by the sequential addition of 40 μl of Assay Buffer, 40 μl of diluted binding protein and 40 μl of 0.3 nM fluorescein-labeled substrate peptide. After 15 min plates were read in a Criterion Analyst™ (LJL BioSystems, Inc., Sunnyvale, Calif.) in fluorescence polarization detection mode using the parameters listed as follows:
(§3) To obtain values for background fluorescence, assays were set up as above except the fluorescein-labeled substrate was replaced with Assay Buffer. To determine the fluorescence polarization values for the unbound substrate peptide, assays were set up as above except that the 40 μl of diluted binding protein was replaced with Assay Buffer.

For data set [7], the target named is T3, PTP1B(D181A) (Homo sapiens, UniProt P18031, D181A).
T3 construct: PTP1B proteins (wild type and mutant forms) comprising amino acids 1-321 were expressed in E. coli; made in house; host or cells: E. coli
T3 sequence (P18031 1-321 D181A): T2 sequence (P18031 1-321 C215S) with D181A, S215C
The data set is described as follows: PTP-1B (DA) binding assay: fluorescence polarization binding of fluorescein-labeled phosphotyrosyl peptides. Conditions: Table 2; midpoint of bound/unbound transition (apparent Kd). As to the method: as §1, §2, §3

Data set [8] has as its target LAR (Homo sapiens, UniProt P10586). Particulars: insulin receptor 1142-1152 peptide, pTyr1146; cited from earlier work.
In data set [9] the target is T4, D181A PTP1B (Homo sapiens, UniProt P18031, D181A).
T4 construct: PTP1B proteins (wild type and mutant forms) comprising amino acids 1-321 were expressed in E. coli; made in house; host or cells: E. coli
T4 sequence (P18031 1-321 D181A): T2 sequence (P18031 1-321 C215S) with D181A, S215C
The data set is described as follows: Inhibition of fluorescent EGF receptor peptide binding to DA substrate binding mutant (FP). As to the method:
(§4) To the test agents was added 40 μl of 3 nM CS or DA binding mutant of PTP1B in Assay Buffer. Plates were shaken for 30 sec to mix the two solutions. After another 12.5 minutes 40 μl of 3 nM fluorescein-labeled EGF receptor peptide was added and the solutions mixed for 30 sec. After 12.5 minutes of incubation the plates were read as described in Example 3.

Data set [10] concerns the target T5, C215S PTP1B (Homo sapiens, UniProt P18031, C215S).
T5 construct: PTP1B proteins (wild type and mutant forms) comprising amino acids 1-321 were expressed in E. coli; made in house; host or cells: E. coli
T5 sequence (P18031 1-321 C215S): T2 sequence (P18031 1-321 C215S)
The data set is described as follows: Inhibition of fluorescent EGF receptor peptide binding to CS substrate binding mutant (FP). Particulars: Table 3; fluorescein-labeled EGF receptor peptide. As to the method: as §4

For data set [11], the target named is T6, PTP1B (Homo sapiens, UniProt P18031).
T6 construct: PTP1B proteins (wild type and mutant forms) comprising amino acids 1-321 were expressed in E. coli; made in house; host or cells: E. coli
T6 sequence (P18031 1-321): T2 sequence (P18031 1-321 C215S) with S215C
The data set is described as follows: PTP catalytic assay of F-ERP-P dephosphorylation with alternate reaction terminator molecules (FP). The format is biochemical. The protocol:
The ability of each reaction terminator molecule also was assessed in the presence and absence of vanadate (a well known, nonspecific PTP inhibitor).
Assays were set up in black polypropylene plates with 20 μl of 25 mM Tris HCl pH 7.5 and 20 μl of 300 nM F-ERP-P in 25 mM Tris HCl pH 7.5, 1 mM EDTA, 1 mM DTT, 0.25 mg/ml ovalbumin (TEOD buffer). […] Plates were read using the Polarstar instrument from BMG Lab Technologies using the following settings:
As in Example 3, wells were set up to measure background fluorescence to allow proper calculation of mP values and other wells were set up without addition of terminator reagent to assess the minimum polarization value of the unbound fluorescent phosphotyrosyl peptide (F-ERP-P).

Data set [12] concerns the target T7, fluorescein-labeled EGF receptor derived phosphopeptide D-A-D-E-pY-L-NH2 (not fully specified).
T7 chain: DADEYL

Data set [13] deals with fluorescein-labeled EGF receptor derived phosphopeptide D-A-D-E-pY-L-NH2 (human). The data set is described as follows: fluorescence polarization, C215S PTP1B as reaction terminator (Polarstar reader).
[14] abbreviates: Table 3, fluorescein-labeled EGF receptor peptide, read-out: D181A IC50.

Sequence of LAR (P10586 30-1907, species assumed): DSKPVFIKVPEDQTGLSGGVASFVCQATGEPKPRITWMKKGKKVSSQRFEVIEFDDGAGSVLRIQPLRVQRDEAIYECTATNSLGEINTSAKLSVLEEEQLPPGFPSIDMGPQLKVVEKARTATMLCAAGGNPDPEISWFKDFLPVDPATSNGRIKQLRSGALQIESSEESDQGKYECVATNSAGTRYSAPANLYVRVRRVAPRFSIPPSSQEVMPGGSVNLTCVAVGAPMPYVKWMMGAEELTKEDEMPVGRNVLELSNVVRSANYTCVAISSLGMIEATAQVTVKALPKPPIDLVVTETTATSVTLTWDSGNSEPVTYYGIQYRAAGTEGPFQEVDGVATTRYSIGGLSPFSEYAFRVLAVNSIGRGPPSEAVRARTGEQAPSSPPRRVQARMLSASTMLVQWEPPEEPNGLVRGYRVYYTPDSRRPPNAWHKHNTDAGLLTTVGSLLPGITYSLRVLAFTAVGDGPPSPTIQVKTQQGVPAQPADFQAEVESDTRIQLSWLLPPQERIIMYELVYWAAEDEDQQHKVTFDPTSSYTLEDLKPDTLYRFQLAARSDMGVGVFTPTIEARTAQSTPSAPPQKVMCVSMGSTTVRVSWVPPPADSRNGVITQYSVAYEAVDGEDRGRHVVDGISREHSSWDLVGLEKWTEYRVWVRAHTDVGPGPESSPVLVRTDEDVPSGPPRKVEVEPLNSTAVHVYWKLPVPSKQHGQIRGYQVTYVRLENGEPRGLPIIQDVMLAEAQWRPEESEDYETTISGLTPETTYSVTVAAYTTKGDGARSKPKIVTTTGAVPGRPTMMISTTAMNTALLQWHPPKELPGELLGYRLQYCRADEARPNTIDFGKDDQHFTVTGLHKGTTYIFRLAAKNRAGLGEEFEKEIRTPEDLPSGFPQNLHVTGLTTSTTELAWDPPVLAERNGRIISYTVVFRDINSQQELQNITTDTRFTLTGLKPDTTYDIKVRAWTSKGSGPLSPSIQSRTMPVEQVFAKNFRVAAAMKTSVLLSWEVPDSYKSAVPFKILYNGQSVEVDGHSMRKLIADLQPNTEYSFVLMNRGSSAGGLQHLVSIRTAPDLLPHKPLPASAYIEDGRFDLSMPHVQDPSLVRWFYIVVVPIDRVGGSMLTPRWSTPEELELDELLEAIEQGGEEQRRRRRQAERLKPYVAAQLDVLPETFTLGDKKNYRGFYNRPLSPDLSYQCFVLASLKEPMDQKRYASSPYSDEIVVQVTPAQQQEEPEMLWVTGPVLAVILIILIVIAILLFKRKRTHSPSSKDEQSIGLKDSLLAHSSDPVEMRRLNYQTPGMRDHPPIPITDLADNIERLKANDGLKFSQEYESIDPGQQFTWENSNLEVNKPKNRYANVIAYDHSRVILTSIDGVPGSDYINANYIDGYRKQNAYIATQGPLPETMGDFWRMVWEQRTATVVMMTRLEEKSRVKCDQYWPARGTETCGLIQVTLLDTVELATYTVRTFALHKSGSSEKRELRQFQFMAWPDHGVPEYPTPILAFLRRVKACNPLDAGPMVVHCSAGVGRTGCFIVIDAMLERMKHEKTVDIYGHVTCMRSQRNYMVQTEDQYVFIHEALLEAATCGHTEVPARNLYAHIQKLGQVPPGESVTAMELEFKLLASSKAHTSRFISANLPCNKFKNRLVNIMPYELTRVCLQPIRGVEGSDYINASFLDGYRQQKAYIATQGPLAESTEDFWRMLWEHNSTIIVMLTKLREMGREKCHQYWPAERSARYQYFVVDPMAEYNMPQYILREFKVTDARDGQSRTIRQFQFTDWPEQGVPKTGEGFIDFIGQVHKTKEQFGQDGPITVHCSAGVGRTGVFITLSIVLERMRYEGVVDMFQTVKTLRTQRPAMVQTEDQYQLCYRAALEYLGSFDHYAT

In the case of “A-T-E-G-Q-pY-Q-P-Q-P (ATEGQ[pY]QPQP; also: fluorescein label) [F-lck-P]”, the Km (as a rule, the concentration of substrate that gives half-maximal velocity) in data set [1] is 130 µM.
For the molecule “PTP1B(D181A), amino acids 1-321 (from UniProt P18031 1-321) (enzyme)”, the Peak Mp in data set [2] is 269 mP; in [3], 132 mP. Moreover, the EC50 – broadly, the concentration that produces a half-maximal response – stood at 1.07 nM in [4] and 0.508 nM in data set [5].
Consider `CC[C@H](C)[C@H](NC(=O)[C@H](CC(=O)O)NC(=O)[C@H](CCCNC(=N)N)NC(=O)[C@@H](NC(=O)c1ccc2c(c1)C(=O)OC21c2ccc(O)cc2Oc2cc(O)ccc21)[C@@H](C)O)C(=O)N[C@@H](Cc1ccc(OP(=O)(O)O)cc1)C(=O)N[C@@H](CCC(=O)O)C(=O)N[C@H](C(=O)N[C@@H](CC(=O)O)C(=O)N[C@@H](Cc1ccc(O)cc1)C(=O)N[C@@H](Cc1ccc(O)cc1)C(=O)N[C@@H](CCCNC(=N)N)C(=O)O)[C@@H](C)O` [F-IR-P, T-R-D-1-pY-E-T-D-Y-Y-R], for which the values for the EC50 in data set [6] and in [7] were 1.16 nM and 0.508 nM, respectively. In [8], the Km was 27 µM.
As for `N[C@@H](Cc1ccc(OP(=O)(O)O)cc1)C(=O)O` [P-Tyr, phosphotyrosine], the values for the IC50 in data set [9] (setting [14]) and in [10] were 120 µM and 150 µM, respectively.
With `OO` [H2O2, hydrogen peroxide], the half-maximal inhibitory concentration (IC50) (usually the midpoint of a concentration-inhibition curve) is 10 µM in [9] (setting [14]), ~10 µM in data set [9] (read-out: IC50 for inhibition of the DA substrate binding mutant) and 250 µM in [10].
As for `[Na+].[Na+].[Na+].[O]=[V]([O-])([O-])[O-]` [sodium ortho vanadate], the “effect of inclusion in the terminator mixes on observed endpoints” value in data set [11] (2 mM in terminator solution with C215S PTP1B or G104) was “did not appear to have any additive effect”.

B1: PTP1B (wild type), amino acids 1-321 (protein)
chain: T2 sequence (P18031 1-321 C215S) with S215C
With B1, the “time to complete dephosphorylation of F-ERP-P (fluorescence polarization catalytic assay)” value in data set [12] is given as “under these conditions the dephosphorylation of F-ERP-P was complete by 20 minutes”.

B2: PTP1B(C215S), amino acids 1-321 (protein)
chain: T2 sequence (P18031 1-321 C215S)
In the case of B2, the Peak mP stood at 316 mP in data set [2] and 151 mP in data set [3]. This molecule also showed a maximum polarization value for bound peptide in [13] of 300 mP. Besides, in data set [11] (reactions stopped after 11 min, polarization stable for 14 hours), the “stopping of the dephosphorylation reaction (reaction terminator)” value is “equally effective at stopping the dephosphorylation reaction”. For the same molecule, the values for the concentration for a half-maximal effect (EC50) in [4] and in [5] were 0.965 nM and 1.16 nM, respectively. Further, in data set [12], the “termination of PTP1B-mediated dephosphorylation of F-ERP-P” value was “monoclonal antiphosphotyrosine antibody G104 and the C215S-PTP1B binding mutant were equally effective at stopping the dephosphorylation reaction”.
